Our source for the ratio to parent values is paper PMC12674617 (2025).

B1: full-length BICD2 tagged on the C-terminus with mini-TurboID (BICD2-mTrbo) [human] / KIF5B [human (endogenous in HEK293)] (parent complex)
chain 1: MSAPSEEEEYARLVMEAQPEWLRAEVKRLSHELAETTREKIQAAEYGLAVLEEKHQLKLQFEELEVDYEAIRSEMEQLKEAFGQAHTNHKKVAADGESREESLIQESASKEQYYVRKVLELQTELKQLRNVLTNTQSENERLASVAQELKEINQNVEIQRGRLRDDIKEYKFREARLLQDYSELEEENISLQKQVSVLRQNQVEFEGLKHEIKRLEEETEYLNSQLEDAIRLKEISERQLEEALETLKTEREQKNSLRKELSHYMSINDSFYTSHLHVSLDGLKFSDDAAEPNNDAEALVNGFEHGGLAKLPLDNKTSTPKKEGLAPPSPSLVSDLLSELNISEIQKLKQQLMQMEREKAGLLATLQDTQKQLEHTRGSLSEQQEKVTRLTENLSALRRLQASKERQTALDNEKDRDSHEDGDYYEVDINGPEILACKYHVAVAEAGELREQLKALRSTHEAREAQHAEEKGRYEAEGQALTEKVSLLEKASRQDRELLARLEKELKKVSDVAGETQGSLSVAQDELVTFSEELANLYHHVCMCNNETPNRVMLDYYREGQGGAGRTSPGGRTSPEARGRRSPILLPKGLLAPEAGRADGGTGDSSPSPGSSLPSPLSDPRREPMNIYNLIAIIRDQIKHLQAAVDRTTELSRQRIASQELGPAVDKDKEALMEEILKLKSLLSTKREQITTLRTVLKANKQTAEVALANLKSKYENEKAMVTETMMKLRNELKALKEDAATFSSLRAMFATRCDEYITQLDEMQRQLAAAEDEKKTLNSLLRMAIQQKLALTQRLELLELDHEQTRRGRAKAAPKTKPATPSL
chain 2: MADLAECNIKVMCRFRPLNESEVNRGDKYIAKFQGEDTVVIASKPYAFDRVFQSSTSQEQVYNDCAKKIVKDVLEGYNGTIFAYGQTSSGKTHTMEGKLHDPEGMGIIPRIVQDIFNYIYSMDENLEFHIKVSYFEIYLDKIRDLLDVSKTNLSVHEDKNRVPYVKGCTERFVCSPDEVMDTIDEGKSNRHVAVTNMNEHSSRSHSIFLINVKQENTQTEQKLSGKLYLVDLAGSEKVSKTGAEGAVLDEAKNINKSLSALGNVISALAEGSTYVPYRDSKMTRILQDSLGGNCRTTIVICCSPSSYNESETKSTLLFGQRAKTIKNTVCVNVELTAEQWKKKYEKEKEKNKILRNTIQWLENELNRWRNGETVPIDEQFDKEKANLEAFTVDKDITLTNDKPATAIGVIGNFTDAERRKCEEEIAKLYKQLDDKDEEINQQSQLVEKLKTQMLDQEELLASTRRDQDNMQAELNRLQAENDASKEEVKEVLQALEELAVNYDQKSQEVEDKTKEYELLSDELNQKSATLASIDAELQKLKEMTNHQKKRAAEMMASLLKDLAEIGIAVGNNDVKQPEGTGMIDEEFTVARLYISKMKSEVKTMVKRCKQLESTQTESNKKMEENEKELAACQLRISQHEAKIKSLTEYLQNVEQKKRQLEESVDALSEELVQLRAQEKVHEMEKEHLNKVQTANEVKQAVEQQIQSHRETHQKQISSLRDEVEAKAKLITDLQDQNQKMMLEQERLRVEHEKLKATDQEKSRKLHELTVMQDRREQARQDLKGLEETVAKELQTLHNLRKLFVQDLATRVKKSAEIDSDDTGGSAAQKQKISFLENNLEQLTKVHKQLVRDNADLRCELPKLEKRLRATAERVKALESALKEAKENASRDRKRYQQEVDRIKEAVRSKNMARRGHSAQIAKPIRPGQHPAASPTHPSAIRGGGAFVQNSQPVAVRGGGGKQV

The assay covers variants of B1. As to the kind of experiment: proximity biotinylation, streptavidin bead purification, western blot quantification; parent: 1; read off a plot.
chain 1 R747C: the ratio to parent is approximately 0.5.

On to chain 1 N188T, for which the ratio to parent is approximately 0.86.

Consider chain 1 R694C, for which the ratio to parent was approximately 0.78.
